According to the supplement of paper PMC7125110:
± gives the standard error. For some assays here: Variants at the floor of the assay were thinned out.

B1: glmS ribozyme (parent)
chain: AUAAAAGCGCCAGAACUACAGAAAUGUAGUUGACGAGGAGGAGGUUUAUCGAAUUUUCGGCGGAUGCCUCCAAA

How the values were obtained:
Details in all cases: with glucosamine-6-phosphate
[1] = variants of: B1; experiment: kcat; higher = faster cleavage; RNA array
Procedure, shortened: (§1)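 kcat and KM were obtained from weighted Michaelis–Menten fits across concentrations of kobs values. Those came from one- or two-exponential decay fits to per-tile medians normalised to baseline and to non-cleaving reference variants. The variants were barcoded ribozymes transcribed in situ by E. coli RNA polymerase on sequenced MiSeq chips and tracked through a hybridised Cy3 probe at 37 °C, with 40 μM to 10 mM glucosamine-6-phosphate in HEPES/KCl/Mg(OAc)2 buffer flowed in.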

[2] = variants of: B1; experiment: self-cleavage kobs at 40 uM GlcN6P; higher = faster cleavage; RNA array
Procedure, shortened: as §1

[3] = variants of: B1; experiment: self-cleavage kobs at 10000 uM GlcN6P; higher = faster cleavage; RNA array
Procedure, shortened: as §1

[4] = variants of: B1; experiment: self-cleavage kobs at 160 uM GlcN6P; higher = faster cleavage; RNA array
Procedure, shortened: as §1

[5] = variants of: B1; experiment: self-cleavage kobs at 640 uM GlcN6P; higher = faster cleavage; RNA array
Procedure, shortened: as §1

[6] = variants of: B1; experiment: self-cleavage kobs at 2500 uM GlcN6P; higher = faster cleavage; RNA array
Procedure, shortened: as §1

[7] = variants of: B1; experiment: KM; higher = weaker cofactor use; RNA array
Procedure, shortened: as §1

Row | Variant | kcat [1] [s⁻¹] | self-cleavage kobs at 40 uM GlcN6P [2] [s⁻¹] | self-cleavage kobs at 10000 uM GlcN6P [3] [s⁻¹] | self-cleavage kobs at 160 uM GlcN6P [4] [s⁻¹] | self-cleavage kobs at 640 uM GlcN6P [5] [s⁻¹] | self-cleavage kobs at 2500 uM GlcN6P [6] [s⁻¹] | KM [7] [µM]
1 | A36U G37A | 1.19e-05 ± 3e-06 |  |  |  |  |  | 
2 | C10U G13C A36C |  | < 1e-05 |  |  |  |  | 
3 | U45A A48C C58U |  | < 1e-05 | < 1e-05 |  |  |  | 
4 | G29A U56C | 0.000719 ± 0.00026 |  | 0.000619 ± 6.7e-05 | 3.68e-05 ± 1.1e-05 | 0.000156 ± 2.2e-05 | 0.000226 ± 3.3e-05 | 
5 | C11A U56C | 2.55e-05 ± 1e-05 | < 1e-05 |  | < 1e-05 |  | 4.6e-05 ± 2.2e-05 | 
6 | U49C C61A C70U |  | < 1e-05 | < 1e-05 |  |  |  | 
7 | C10A U31C |  | < 1e-05 | < 1e-05 |  | < 1e-05 |  | 
8 | U56G C71A |  | 8.72e-05 ± 1.6e-05 | 0.00215 ± 0.0004 | 0.000152 ± 4.1e-05 | 0.000589 ± 0.00013 | 0.000518 ± 0.00011 | 
9 | U56G C71U |  | 0.000303 ± 4.6e-05 | 0.0163 ± 0.0024 | 0.000762 ± 0.00016 | 0.00222 ± 0.00042 | 0.00323 ± 0.00056 | 
10 | C10U C16G G35C A42U U57G G59A |  | < 1e-05 |  |  |  |  | 
11 | U31G G40A | 0.00279 ± 0.00072 | 0.00011 ± 2.4e-05 | 0.00301 ± 0.00099 | 0.000269 ± 5.2e-05 | 0.000715 ± 0.00014 | 0.0018 ± 0.00027 | 1460 ± 560
12 | A33U C70A |  | < 1e-05 |  |  |  |  | 
13 | G51A U54A U55A |  | < 1e-05 |  |  |  |  | 
14 | G40U U56C G59C |  | < 1e-05 | < 1e-05 |  |  |  | 
15 | U45C G60C |  | < 1e-05 | < 1e-05 | < 1e-05 | < 1e-05 | < 1e-05 | 
16 | C8A A12U A39G |  | < 1e-05 | < 1e-05 |  | < 1e-05 |  | 
17 | A39G G63U G66A |  | < 1e-05 | < 1e-05 |  | < 1e-05 | < 1e-05 | 
18 | G37U U54C |  |  |  |  |  |  | 2230 ± 960
19 | G9A G44A C67A |  | < 1e-05 |  |  |  |  | 
20 | A6G G35U A42G U46G G66U |  | < 1e-05 |  |  |  |  | 
21 | G13C G40U |  | < 1e-05 |  | < 1e-05 | < 1e-05 |  | 
22 | G29U G43A G63A |  | < 1e-05 |  |  |  |  | 
23 | A6G C10G G13U C16G U54G U57G |  | < 1e-05 | < 1e-05 |  |  |  | 

Row | Variant | kcat [1] [s⁻¹] | self-cleavage kobs at 40 uM GlcN6P [2] [s⁻¹] | self-cleavage kobs at 10000 uM GlcN6P [3] [s⁻¹] | self-cleavage kobs at 160 uM GlcN6P [4] [s⁻¹] | self-cleavage kobs at 640 uM GlcN6P [5] [s⁻¹] | self-cleavage kobs at 2500 uM GlcN6P [6] [s⁻¹] | KM [7] [µM]
24 | C8U G38U A39C C58A |  | < 1e-05 |  |  |  |  | 
25 | C8A C11G |  | < 1e-05 | < 1e-05 | < 1e-05 | < 1e-05 | < 1e-05 | 
26 | A12C A64U C68G |  | < 1e-05 |  |  |  |  | 
27 | G37A G40C A48U G63A |  | < 1e-05 |  |  |  |  | 
28 | G44A G63U |  | < 1e-05 | < 1e-05 | < 1e-05 | < 1e-05 | < 1e-05 | 
29 | G32C G60A | < 1e-05 | < 1e-05 |  |  |  |  | 
30 | A6C C67U | 2.53e-05 ± 7.4e-07 | < 1e-05 | 2.36e-05 ± 7.4e-06 | < 1e-05 |  |  | 660 ± 160
31 | U30C G43U C70A |  | < 1e-05 |  |  |  |  | 
32 | A6G G32C |  | < 1e-05 | < 1e-05 | < 1e-05 | < 1e-05 |  | 
33 | C10A A33C |  | < 1e-05 | < 1e-05 | < 1e-05 | < 1e-05 | < 1e-05 | 
34 | A33G U65G |  | < 1e-05 | < 1e-05 | < 1e-05 | < 1e-05 | < 1e-05 | 
35 | U49C C58U |  | < 1e-05 | < 1e-05 | < 1e-05 | < 1e-05 | < 1e-05 | 
36 | A15G G41U |  | 0.000204 ± 2.3e-05 |  | 0.000282 ± 4.5e-05 | 0.000507 ± 8.7e-05 | 0.00155 ± 0.00029 | 
37 | A6C G29C A36G |  | < 1e-05 | < 1e-05 | < 1e-05 |  | < 1e-05 | 
38 | A6U A48G G51C G59C |  | < 1e-05 | < 1e-05 |  |  |  | 
39 | U30C G51C |  | < 1e-05 | < 1e-05 |  |  |  | 
40 | G40C A48C A52U |  | < 1e-05 |  |  | < 1e-05 | < 1e-05 | 
41 | G29C A48G |  | < 1e-05 |  | < 1e-05 | < 1e-05 | < 1e-05 | 
42 | G32U G40U U46C U54G C70G |  | < 1e-05 |  |  |  |  | 
43 | U30C G35U G41A U47A U57A C61G G63C C70A |  | < 1e-05 | < 1e-05 |  |  |  | 
44 | C16U G66A |  | 0.000448 ± 9.7e-05 | 0.0329 ± 0.014 | 0.00133 ± 0.00023 | 0.00417 ± 0.00068 | 0.00873 ± 0.0019 | 1520 ± 640
45 | G29U U31C C50G |  | 6.96e-05 ± 3.2e-05 | 5.39e-05 ± 2.3e-05 |  |  |  | 
